Series [1] concerns the molecule itself. In words: SDS-PAGE and MALDI-TOF MS of purified VAPs (self-assembly).
Series [2] concerns the molecule itself. The series is described as follows: heterologous expression in E. coli and electron microscopy of thin sections (self-assembly).

B1: P98 protein of Sulfolobus islandicus rod-shaped virus 2 (SIRV2) (other)
chain: MAITLLEGALYGFFAVTGILVGSFVVGEIVHLYNEKQNNENFAKAVDQMSKSTVIAVESIKDTTTTAINALLNMDTLRDVNALAREKAKDQNPNTQAK
notes: Assayed as assembled VAPs (homomultimeric pyramids) from SIRV2-infected S. islandicus; Also used here for P98 expressed from pSVA1059 in S. acidocaldarius, for which no tag is stated; The number of monomers per VAP was not measured; also called SIRV2-P98; protein 98
As for B1, the binding result in series [1] is given as “binds”.

B2: recombinant C-terminal his-tagged P98 expressed in E. coli Rosetta(DE3)pLys from pSVA1051 (other)
chain: MAITLLEGALYGFFAVTGILVGSFVVGEIVHLYNEKQNNENFAKAVDQMSKSTVIAVESIKDTTTTAINALLNMDTLRDVNALAREKAKDQNPNTQAK
notes: Found primarily in the E. coli membrane fraction, where it forms closed VAPs on the inner membrane; also called recombinant P98; E. coli 1051 expressing SIRV2-ORF98; not shown: C-terminal his tag
For the protein B2, the binding result in series [2] is reported as “binds”.
